Results published in the DeepSol protein solubility set.

Assay: soluble on expression in E. coli; label from the status in PepcDB or PDB records

Row | Sequence | soluble on expression in E. coli
1 | SAQKEEAAVATEAASQNGEDLENLDDPEKLKELIELPPFEIVTGERLPANFFKFQFRNVEYSSGRNKTFLCYVVEAQGKGGQVQASRGYLEDEHAAAHAEEAFFNTILPAFDPALRYNVTWYVSSSPCAACADRIIKTLSKTKNLRLLILVGRLFMWEEPEIQAALKKLKEAGCKLRIMKPQDFEYVWQNFVEQEEGESKAFQPWEDIQENFLYYEEKLADILK | soluble
2 | AMDIRQVTETIAMIEEQNFDIRTITMGISLLDCIDPDINRAAEKIYQKITTKAANLVAVGDEIAAELGIPIVNKRVSVTPISLIGAATDATDYVVLAKALDKAAKEIGVDFIGGFSALVQKGYQKGDEILINSIPRALAETDKVCSSVNIGSTKSGINMTAVADMGRIIKETANLSDMGVAKLVVFANAVEDNPFMAGAFHGVGEADVIINVGVSGPGVVKRALEKVRGQSFDVVAETVKKTAFKITRIGQLVGQMASERLGVEFGIVDLSLAPTPAVGDSVARVLEEMGLETVGTHGTTAALALLNDQVKKGGVMACNQVGGLSGAFIPVSEDEGMIAAVQNGSLNLEKLEAMTAICSVGLDMIAIPEDTPAETIAAMIADEAAIGVINMKTTAVRIIPKGKEGDMIEFGGLLGTAPVMKVNGASSVDFISRGGQIPAPIHSFKN | soluble
3 | PLGLAPTASTTATLAMGDALAVALLIERGFRPEDFALFHPGGSLGKKLLLTVGDLMHSGDAVPLVGSATPIRDALFVITAKGLGITGVCAEDGALVGVVTDGDLRRSLGKGVDILNQPAGEIMTRNPKRINRSELAAKALQVMESHSITSLFVFDDTADNRPVGVIHLHDLLRA | not soluble
4 | MGSSHHHHHHSSGLVPRGSHMRGVIRKLNDDGFGVLKGILVPFSAPGDEIIVERVERVKKRRVASQWKLVRSSPLRVGPRCKAFGKCGGCTLQHLNYDYQLEFKRKKLKRILGFEVEVVPSPKIFGHRNRIDLAITKDGIGFRERGKWWKIVDIDECPVFGKTSREAIERLKEFIEEEKISVWNIKKDEGFLRYMVLREGKFTEEVMVNFVTKEGNLPDPTNYFDFDSIYWSVNRSKSDVSYGDIERFWGKEFIRERLDDVDYLIHPNSFFQTNSYQAVNLVRKVSELVEGEKILDMYSGVGTFGIYLAKRGFNVKGFDSNEFAIEMARRNVEINNVDAEFEVASDREVSVKGFDTVIVDPPRAGLHPRLVKRLNREKPGVIVYVSCNPETFARDVKMLDYRIDEIVALDMFPHTPHVELVAKLV | soluble
5 | MGSDKIHHHHHHGCSRRDILDDYPVSGVEVRLDWSGVTEKLPEGVRIIFYPKDEKGRKIDTYLSVTGGEVKVPSGHYAVVIYNYDTETVLIRGEESYETIQAYTNFCKLGIAGTEKMVWGPDPLYVVNIDDLDIQNSEETLILKLKPKLVIRTYSFSIKVQGLSNVSNVIGSIGGMADHYFLGKAYAMCDDYPINIDLNVKAGKIEGVFTTFGLPEAIITRLEIKLPVMMNLMIIKVDNSVQEVKINITEAVQEPTGGGEGGEGEETKPPALVEVEIEDEIKVDDVETPPSGGGGIGGDVGDWDDETNVELPVG | not soluble
6 | MVLGTVLLPPNSYGRDQDTSLCCLCTEASESALPDLTEALHRPYGCDVEPQALNEAIRWSSKENLLGATESDPNLFVALYDFVASGDNTLSITKGEKLRVLGYNQNGEWSEVRSKNGQGWVPSNYITPVNSLEKHSWYHGPVSRSAAEYLLSSLINGSFLVRESESSPGQLSISLRYEGRVYHYRINTTADGKVYVTAESRFSTLAELVHHHSTVADGLVTTLHYPAPKCNKPTVYGVSPIHDKWEMERTDITMKHKLGGGQYGEVYVGVWKKYSLTVAVKTLKEDTMEVEEFLKEAAVMKEIKHPNLVQLLGVCTLEPPFYIVTEYMPYGNLLDYLRECNREEVTAVVLLYMATQISSAMEYLEKKNFIHRDLAARNCLVGENHVVKVADFGLSRLMTGDTYTAHAGAKFPIKWTAPESLAYNTFSIKSDVWGKVERDFFLCHFIFFFINALIL | soluble
7 | MIAQLQKSLIQQNSTFEKKNNVEVAPIAKISLKDRLASLNNSAEQWKSRPERQPAVQQRRTSANVLQDLPIFQRAQQLHQQQQRPQSFPVVQEKPCDITSGLKKFFGSNPTTSGASSSLPKISEITASNDIDLDAISSKATPVLKTVTRPRAPNRKKSDKSSTFDERIRLDAVKIDEEAFAVVEEEPEKLETQEQAIAAIQGAKQLLKSPTKVSPYPDVMLIQVRGSKNVDVRLVAPAMSSVHEVACFVVVHQKHLMKYEGLYSNILEKTKASQLCIEILGKSDLNCTAESIVTVTGASRSTLSKLLFCSENSESSSENNNYHQASSVEPFETTVAKLNLVLRIAGDNTAETCSRRERLSYEIMKPSEVLIFDFGSEIYVWTGRYSNKVSSAYAQEYAKQLMKKPVKNGKFILGDAESIDQDGRPEWTLSRKIHQGVLDTLFKAKFSDWPETREVLTTCKPRALISKKNPEVKTYEDVKVVNQDDEVADLVERMLQEQELDPILVLEDQEIDRKIHDVISEDRSLWVLRGEVLQSIEEFTEHFDSRRCYVLRWKYRIQKSGVRRIKTGKEEERETGRSRIAFWYWLGEHTTPKQHGLCALRIKEIDRDNSPRIRIADGNEPALFLALFDGKFMVSSDISEMKPLRRYVVIGANSRETSLREIDDLNSPLRSHAAYIEVEKDILGPSSVVCGANCTEDQVHFVLAHAEYMRQKAGVKGNSAEIEVEGDKKSRSWVNSNGRKRAMRVWRLFDNESEQVNHLSGHKNCAFTFSQQVLKETILIDVGDALWLWSEEVITTFALKVAEKYWKDRSGPAKVVYKGAEPEQFKGLFMKWEMFEVEDDKPSDPPRDVSDLLKERCRTFSLEELKERTSLPAGMDMRRLESYLTDDDFMKVFKIERSEFYAQKTWKQNDARKRVGLF | not soluble
8 | MGHHHHHHSHRGAGRVSRWPPPHWLEAWRVSPRPLSPLSPATFGRGFIAVAVIPGLWARGRGCSSDRLPRPAGPARRQFQAASLLTRGWGRAWPWKQILKELDECYERFSRETDGAQK | not soluble
9 | MTSPDEHSPEKKDSENEVVPAGPKQKAKCLEKETKSPPKPSDLSKAERKEKNNKTARRDVKSSRGNVKTMKPSVVKVEERSSRSKKSIREGKLKNFSLPKDEPEITALQLDAELTKSARLMEEYKIALEQIITTLVSMMRRGNGTVDMENIVSDKGQTAAEKLNKEVQLTQNYWKTDTKLQPAMNDAIAKNTVVLAAAERNLQTQGPQHLKRVKKFLYGQYPKYVDMKRDLLKIVKQQKPEAQSVRDESAQAISKFIKEKYVNAKIYASRRNSKCFRRVELFPSYIRFYLASNR | soluble
10 | HLYPGEVCPGMDIRNNLTRLHELENCSVIEGHLQILLMFKTRPEDFRDLSFPKLIMITDYLLLFRVYGLESLKDLFPNLTVIRGSRLFFNYALVIFEMVHLKELGLYNLMNITRGSVRIEKNNELCYLATIDWSRILDSVEDNHIVLNKDDNEECGDICPGTAKGKTNCPATVINGQFVERCWTHSHCQKVCPTICKSHGCTAEGLCCHSECLGNCSQPDDPTKCVACRNFYLDGRCVETCPPPYYHFQDWRCVNFSFCQDLHHKCKNSRRQGCHQYVIHNNKCIPECPSGYTMNSSNLLCTPCLGPCPKVCHLLEGEKTIDSVTSAQELRGCTVINGSLIINIRGGNNLAAELEANLGLIEEISGYLKIRRSYALVSLSFFRKLRLIRGETLEIGNYSFYALDNQNLRQLWDWSKHNLTITQGKLFFHYNPKLCLSEIHKMEEVSGTKGRQERNDIALKTNGDQASCENELLKFSYIRTSFDKILLRWEPYWPPDFRDLLGFMLFYKEAPYQNVTEFDGQDACGSNSWTVVDIDPPLRSNDPKSQNHPGWLMRGLKPWTQYAIFVKTLVTFSDERRTYGAKSDIIYVQTDATNPSVPLDPISVSNSSSQIILKWKPPSDPNGNITHYLVFWERQAEDSELFELDYCLKGLKLPSRTWSPPFESEDSQKHNQSEYEDSAGECCSCPKTDSQILKELEESSFRKTFEDYLHNVVFVPRPSRKRRSLGDVGNHGNNVPTVAAFPNTSSTSVPTSPEEHRPFEKVVNKESLVISGLRHFTGYRIELQACNQDTPEERCSVAAYVSARTMPEAKADDIVGPVTHEIFENNVVHLMWQEPKEPNGLIVLYEVSYRRYGDEELHLCDTRKHFALERGCRLRGLSPGNYSVRIRATSLAGNGSWTEPTYFYVTDYLDVPSNIAK | soluble
11 | GPGHAGIFTFEEPVTHVSESIGIMEVKVLRTSGARGNVIVPYKTIEGTARGGGEDFEDTCGELEFQNDEIVKTISVKVIDDEEYEKNKTFFLEIGEPRLVEMSEKKALLLNELGGFTITGKYLYGQPVFRKVHAREHPIPSTVITIAEEYDDKQPLTSKEEEERRIAEMGRPILGEHTKLEVIIEESYEFKS | soluble
12 | MAHHHHHHMAAVTPPTSRALPLEATAIFPPQGSRELDRGAPPLESLSCTKRATAAQHIRGGEGRGAAPCLYIQTVSGSLLPVVLSPSPTHSPIPQRCEQYRDAYANVTICIDTEERSIQRLETFGGGTTITAILCKRYFPPFQ | not soluble
13 | MYNGILPVYKERGLTSHDVVFKLRKILKTKKIGHTGTLDPEVAGVLPVCIGNATRVSDYVMDMGKAYEATVSIGRSTTTEDQTGDTLETKGVHSADFNKDDIDRLLENFKGVIEQIPPMYSSVKVNGKKLYEYARNNETVERPKRKVNIKDIGRISELDFKENECHFKIRVICGKGTYIRTLATDIGVKLGFPAHMSKLTRIESGGFVLKDSLTLEQIKELHEQDSLQNKLFPLEYGLKGLPSIKIKDSHIKKRILNGQKFNKNEFDNKIKDQIVFIDDDSEKVLAIYMVHPTKESEIKPKKVFN | soluble
14 | MTWLLFGAGNGVGGCLLQRAIECEQAVVLVLRNPEQAKHWREQGVTVVEGDACDPETVAEACRVAGPSAIVVSTMGGGTVNYQGHRTVIDGAEQAGIKRMLLVTSLGCGDSWPLLSPRARAAFGFAVREKSLAESWLQSSTLDHCIVRPGGLLDVVATHNAKLTQGAATLGLVSRSDVALAVDQLLQQPVFGNHIYNLIDPDLTMPAIPLEHHHHHH | not soluble
15 | LYFQGMSLEPFGARLSRAMDDRGPLCVGIDPHASLLADWGLSDDVAGLERFSRTVVEALGEHVAVFKPQSAFFERFGSRGVAVLEKTVAEARAAGALVVMDAKRGDIGSTMAAYAEAFLRKDSPLFSDALTVSPYLGYGSLRPAVELARESGAGLFVLALTSNPEGGEVQHAVRTDGRDVAATMLAHLAAENAGEEPLGSFGAVVGATLGDLSSYDLDINGPLLAPGIGAQGAAPADLPGVFGAAVRNVVPNVSRGVLRHGPDVRALRTAADRFAEEIRAAVAA | soluble
16 | GPGSMSKGAVVLVLDITLPRAAALVEACNLCDRILTDKMIYAPSDEVSVILAGTEKSRSALYEQSVQARYNHITVAAELGPATSLTLAPIAATRAGVAVLPEGETVRPSIAEAYDFIDALQVAVAVLQARTSQKKYNRCIYFLTDARHEVRHKEDLLSLIDILQRDQVALVVIGFDFQALPAPADSQGEFNESTTVVPSAWAALDRKAQNERILAALCTELGPPSTLVSPAEALASLSLLRCRRIRQQPVLKVALRMGDVRLATQLFTLTQEERLPSLRRSTQDGVDVAQTIEYVVLGGVEERPCALAKEERVEAFFLGVDRISCSEADREAMRVKGPRALEAIGFVGEAEVEPYLLMGGTRALLPLAGDHAGQRGFNALVDAMASSRKAMLVRLVRTADAAPSLCVCFARTAGSSAAQRHLVLAPLPFAEDVRALRFSEYPELQFSAAEEQLMDELIDGLSVDDSVLAPHDTFNPVLQQYYATLRAKLSAMNVSAEKGNTKATSPEAAVPQLLPTLRGTSTDFFAEGSEVYEVVSAHRSALVSCATAFPYEDEADALLSGSRDAGRKGKPWYQDVAMTPSLIGPQAGSPPPAAQGSDGAPSTIAPAIAGGARCGGEADEASAGSHTASDANSISTVPHDTISGGVSFAITSVDPVGSFSMIVHHPAVTEAQLNKAKDDLSDVIWELLRSSIKDAIYRKCMACIMALRQFCVTQDDAAYYNDFLLKLEVVARQCSRDADFWVPYVVERKDGANVWPITAQECKSAALPDDTAAKAFLQKDRFDPAIAFDDTADDDDWLAEIQ | not soluble
17 | MISNDAIRRNMAVFSMSVVSKLTDLTPRQIRYYETHELIKPERTEGQKRLFSLNDLERLLEIKSLLEKGFNIKGIKQIIYDSQEHLTTDEQEIRKKMIVDATQKPIGETLPINRGDLSRFIK | not soluble
